Results reported in US20130007915A1.

Biological target: actin filament
Assay: cell-based or functional assay

Row | Substance | sliding velocity (in vitro sliding filament assay) [µm/sec]
1 | Flag-chimera XI protein (chimeric myosin XI: Chara corallina myosin XI motor domain on the A. thaliana MYA2 backbone, FLAG-tagged) | 16.2
2 | wild-type A. thaliana myosin XI-2 (MYA2), expressed from the Flag-MYA2 XI gene (from UniProt Q9LKB9 1-1505) | 7
